Measured values reported in patent US6451313.
Several values for one entry are separate records, joined by “and”; a condition that tells them apart may be missing. Identical values can stand only once.

How the values were obtained:
[1] = molecular target: HIV-1IIIB gp120/gp41 stably expressed on CHO cells (HIV-1 IIIB); assay: cell-based or functional assay
[2] = molecular target: recombinant HIV-1 gp120 from the laboratory-adapted strain HIV-1LAI (HIV-1 LAI) (UniProt P03377); assay: modified ELISA, gp120 captured on plate, 50% maximal binding
[3] = molecular target: recombinant HIV-1 gp120 from the primary isolate HIV-1JR-FL (HIV-1 JR-FL) (UniProt P20871); assay: as above

**Q.** With “CD4-IgG2 chimeric heterotetramer (Fc fusion)” as the substance, how does the IC50 of syncytium inhibition (CHO cells expressing HIV-1IIIB gp120/gp41 with C8166 cells) [1] read?
**A.** 9 nM and 1.81 µg/ml

**Q.** What about the Relative Potency (mass), relative to sCD4, syncytium inhibition [1] of the same substance?
**A.** 5.1 fold

**Q.** What about the Relative Potency (molarity), relative to sCD4, syncytium inhibition [1] of the same substance?
**A.** 22.2 fold

**Q.** And the EC50 [2]?
**A.** 1.25 nM

**Q.** And the EC50 [3]?
**A.** 0.64 nM
